No end group written: not given here.
T1: His-tagged P3028 (human, not fully specified)
T1 construct: the tag is put first after 'PGE73=His-tag-P3028'; also called PGE73; not shown: His-tag
T1 peptide: {His‑tag}-VFDEFKPLVEEPQNLIK


Biological target: T1, His-tagged P3028
Experiment: chip ELISA
Work on KKLDTFFVKLSRFTER [P28R L12R] yielded an ELISA signal of 483. Work on KKLDTFFVKLSSFTER [P28R L12S] yielded an ELISA signal of 478. KKLDTFFVKLSTFTER [P28R L12T] gave an ELISA signal of 437. KKLDTFFVKLSVFTER [P28R L12V] gave an ELISA signal of 545. KKLDTFFVKLSWFTER [P28R L12W] was tested, and the ELISA signal was 409. With KKLDTFFVKLSYFTER [P28R L12Y] the ELISA signal was 320. Work on KKLDTFFVKLSLFTEA [P28R R16A] yielded an ELISA signal of 226. Work on KKLDTFFVKLSLFTED [P28R R16D] yielded an ELISA signal of 133. KKLDTFFVKLSLFTEE [P28R R16E] showed an ELISA signal of 107. Work on KKLDTFFVKLSLFTEF [P28R R16F] yielded an ELISA signal of 297. KKLDTFFVKLSLFTEH [P28R R16H] showed an ELISA signal of 239. With KKLDTFFVKLSLFTEI [P28R R16I] the ELISA signal was 176. For KKLDTFFVKLSLFTEK [P28R R16K], the ELISA signal was 291. For KKLDTFFVKLSLFTEL [P28R R16L], the ELISA signal was 217. KKLDTFFVKLSLFTEM [P28R R16M] was tested, and the ELISA signal was 238. KKLDTFFVKLSLFTEN [P28R R16N] gave an ELISA signal of 311. KKLDTFFVKLSLFTEQ [P28R R16Q] was tested, and the ELISA signal was 133. In the case of KKLDTFFVKLSLFTES [P28R R16S], the ELISA signal is reported as 184. Binder KKLDTFFVKLSLFTET [P28R R16T] has an ELISA signal of 292. Work on KKLDTFFVKLSLFTEV [P28R R16V] yielded an ELISA signal of 254. KKLDTFFVKLSLFTEW [P28R R16W] was tested, and the ELISA signal was 202. Work on KKLDTFFVKLSLFTEY [P28R R16Y] yielded an ELISA signal of 311. For KKLDTFFVKLALFTER [P28R S11A], the ELISA signal was 318. For KKLDTFFVKLDLFTER [P28R S11D], the ELISA signal was 322. For KKLDTFFVKLELFTER [P28R S11E], the ELISA signal was 234. Binder KKLDTFFVKLFLFTER [P28R S11F] has an ELISA signal of 250. KKLDTFFVKLHLFTER [P28R S11H] was tested, and the ELISA signal was 535. Work on KKLDTFFVKLILFTER [P28R S11I] yielded an ELISA signal of 289. In the case of KKLDTFFVKLKLFTER [P28R S11K], the ELISA signal is reported as 323. KKLDTFFVKLLLFTER [P28R S11L] showed an ELISA signal of 213. KKLDTFFVKLMLFTER [P28R S11M] was tested, and the ELISA signal was 744. KKLDTFFVKLNLFTER [P28R S11N] gave an ELISA signal of 451. For KKLDTFFVKLQLFTER [P28R S11Q], the ELISA signal was 768. For KKLDTFFVKLRLFTER [P28R S11R], the ELISA signal was 333. Binder KKLDTFFVKLTLFTER [P28R S11T] has an ELISA signal of 520. Work on KKLDTFFVKLVLFTER [P28R S11V] yielded an ELISA signal of 392. KKLDTFFVKLWLFTER [P28R S11W] showed an ELISA signal of 324. For KKLDTFFVKLYLFTER [P28R S11Y], the ELISA signal was 402. KKLDAFFVKLSLFTER [P28R T5A] was tested, and the ELISA signal was 346. In the case of KKLDDFFVKLSLFTER [P28R T5D], the ELISA signal is reported as 295. KKLDEFFVKLSLFTER [P28R T5E] was tested, and the ELISA signal was 341. In the case of KKLDFFFVKLSLFTER [P28R T5F], the ELISA signal is reported as 290. With KKLDHFFVKLSLFTER [P28R T5H] the ELISA signal was 391. In the case of KKLDIFFVKLSLFTER [P28R T5I], the ELISA signal is reported as 293. KKLDKFFVKLSLFTER [P28R T5K] was tested, and the ELISA signal was 237. KKLDLFFVKLSLFTER [P28R T5L] was tested, and the ELISA signal was 311. For KKLDMFFVKLSLFTER [P28R T5M], the ELISA signal was 475. With KKLDNFFVKLSLFTER [P28R T5N] the ELISA signal was 436. Binder KKLDQFFVKLSLFTER [P28R T5Q] has an ELISA signal of 535. For KKLDRFFVKLSLFTER [P28R T5R], the ELISA signal was 430. Binder KKLDSFFVKLSLFTER [P28R T5S] has an ELISA signal of 458. In the case of KKLDVFFVKLSLFTER [P28R T5V], the ELISA signal is reported as 374. For KKLDWFFVKLSLFTER [P28R T5W], the ELISA signal was 418. For KKLDYFFVKLSLFTER [P28R T5Y], the ELISA signal was 425. For KKLDTFFVKLSLFAER [P28R T14A], the ELISA signal was 305. KKLDTFFVKLSLFDER [P28R T14D] was tested, and the ELISA signal was 159. For KKLDTFFVKLSLFEER [P28R T14E], the ELISA signal was 110. With KKLDTFFVKLSLFFER [P28R T14F] the ELISA signal was 348. With KKLDTFFVKLSLFHER [P28R T14H] the ELISA signal was 463. Binder KKLDTFFVKLSLFIER [P28R T14I] has an ELISA signal of 375. KKLDTFFVKLSLFKER [P28R T14K] showed an ELISA signal of 259. KKLDTFFVKLSLFLER [P28R T14L] was tested, and the ELISA signal was 360. KKLDTFFVKLSLFMER [P28R T14M] showed an ELISA signal of 501. Binder KKLDTFFVKLSLFNER [P28R T14N] has an ELISA signal of 599. Binder KKLDTFFVKLSLFQER [P28R T14Q] has an ELISA signal of 301. For KKLDTFFVKLSLFRER [P28R T14R], the ELISA signal was 264. KKLDTFFVKLSLFSER [P28R T14S] was tested, and the ELISA signal was 369. KKLDTFFVKLSLFVER [P28R T14V] showed an ELISA signal of 380. KKLDTFFVKLSLFWER [P28R T14W] showed an ELISA signal of 374. KKLDTFFVKLSLFYER [P28R T14Y] gave an ELISA signal of 270. Work on KKLDTFFAKLSLFTER [P28R V8A] yielded an ELISA signal of 299.

From patent publication US20170298096A1 (CANIMGUIDE THERAPEUTICS, published 2017)
